Data published in paper PMC3817407.

How the values were obtained:
ECF28_1040 = target: T1, ECF28_1040
T1 chain: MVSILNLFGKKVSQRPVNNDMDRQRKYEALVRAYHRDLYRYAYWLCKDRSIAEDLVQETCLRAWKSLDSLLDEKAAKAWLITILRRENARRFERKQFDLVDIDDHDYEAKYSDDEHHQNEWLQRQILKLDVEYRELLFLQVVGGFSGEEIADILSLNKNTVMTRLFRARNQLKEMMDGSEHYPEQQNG

ECF28_1088 = target: T2, ECF28_1088
T2 chain: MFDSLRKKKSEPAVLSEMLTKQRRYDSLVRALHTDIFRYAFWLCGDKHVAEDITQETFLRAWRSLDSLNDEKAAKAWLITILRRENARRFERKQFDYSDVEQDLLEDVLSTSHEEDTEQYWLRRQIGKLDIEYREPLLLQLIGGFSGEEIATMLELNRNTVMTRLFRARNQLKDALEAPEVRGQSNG

ECF17_1458 = target: T3, ECF17_1458
T3 chain: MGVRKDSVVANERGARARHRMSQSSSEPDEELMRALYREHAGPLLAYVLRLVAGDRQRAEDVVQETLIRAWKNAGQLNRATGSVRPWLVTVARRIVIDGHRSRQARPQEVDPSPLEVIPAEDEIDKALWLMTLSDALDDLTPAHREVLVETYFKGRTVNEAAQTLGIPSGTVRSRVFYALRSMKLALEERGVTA

ECF33_375 = target: T4, ECF33_375
T4 chain: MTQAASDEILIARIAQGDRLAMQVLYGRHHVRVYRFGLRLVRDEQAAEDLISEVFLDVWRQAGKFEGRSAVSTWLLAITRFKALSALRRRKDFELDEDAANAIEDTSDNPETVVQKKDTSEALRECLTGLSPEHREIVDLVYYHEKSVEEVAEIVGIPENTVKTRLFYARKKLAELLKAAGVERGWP

ECF01_3473 = target: T5, ECF01_3473
T5 chain: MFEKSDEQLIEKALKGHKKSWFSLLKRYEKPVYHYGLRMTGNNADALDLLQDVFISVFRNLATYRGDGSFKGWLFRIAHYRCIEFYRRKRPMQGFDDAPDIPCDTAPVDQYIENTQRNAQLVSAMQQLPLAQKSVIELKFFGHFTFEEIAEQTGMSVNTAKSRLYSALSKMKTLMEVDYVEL

B1: AS35_3582 (protein)
chain: MNPQKHSASVAEEQMLAHFRAHAPQQPAPALDQAILAAARRQAAHVEPARSWWRRWLEASRRPRWQAAFASLLGVALVLGLVSHNVLDDAERQARPEVAFSDVPLRDGVAGAAAAKRAMRAPAAPAPLSGEMSEPPALLASYASSGEAPQLMAEAAPPAPAALADRPPAQAAQQAKVQAALAGDFVAQARGKAVAVKPEVLDEALGAVLALREQGKTEQAATQLAELQKRFPGENLVERLERLATIAASARKRP
- fold repression (ECF28_1040): 2.76
- fold repression (ECF28_1088): 3.76
- fold repression (ECF17_1458): 7.06
- fold repression (ECF33_375): 2.9
- fold repression (ECF01_3473): 5.93

B2: AS31_34 (protein)
chain: MNKEKLSDHLKSEWKKIDQTANPSIPNQKELLHQLSQMKAEYRKKLLQEIILFVFCALMVVSAAILAFTQAPAVFIVLQVCVLAVLPILIAAEKKRHLGECEVKRG
- fold repression (ECF28_1040): 2.22
- fold repression (ECF28_1088): 1.59
- fold repression (ECF17_1458): 4.02
- fold repression (ECF33_375): 2.06
- fold repression (ECF01_3473): 1.76

B3: AS27_4265 (protein)
chain: MTGHPDVAEIADLAEGLLPTTRTTEVRQHLESCELCADVYASLTEIQGLLGTLPAPAPMPDDVAARIDAALAAEPPLGIADGTRVSRETSTPADRPAGHARPSSTGPGRKDRRRGGRRRIAVLGAVAAAAAIGIGSVVVSSLTEDSSSGNTAREQQTAIADTFSEGRLKDRVTNLVADGSAENGSRTPRSFGMESENGGETAENHVFKQPTVPECIRKGIGRDDAVIATEPGVYKGREALLVVLPDATNDTQVTAYIVETACVDQPAVGKAKILLEHSYARS
- fold repression (ECF28_1040): 2.19
- fold repression (ECF28_1088): 2.14
- fold repression (ECF17_1458): 2.47
- fold repression (ECF33_375): 1.07
- fold repression (ECF01_3473): 3.99

B4: AS30_35 (protein)
chain: MDKRLQQLREEYKNVQIPKELDIIVEKALQQEPKKKRIVMWPTSAAIAAAILFTALVNINPDAAQAMSKIPVIGKIVKAITFIEIKEEKDQSSIDVKTPALSGLSNKELENSINEKYLKESQQLYKEFIQSTSKNKKGHLSIYSDYETVTDTPDLLSIRRNIETTQASSYTQSRYITIDKKNDILLTLKSLFKDERYIKVISQNIKEQMKQQMKEDPNKIYWLTDEDAEPFKTILPDQTFYITEDHKLVISFDEYEVAPGYMGVTEFTIPTGVISNLLVGERYIR
- fold repression (ECF28_1040): 1.32
- fold repression (ECF28_1088): 1.68
- fold repression (ECF17_1458): 1.52
- fold repression (ECF33_375): 1.3
- fold repression (ECF01_3473): 1.65

B5: AS37_2513 (protein)
chain: MSSAPATKEEVDFALKVRRALDERAASLPDATTDRLAAARRAALARKKPDAAIVLVPALAGSAGTLELRPPGEPRKSLARRLARAWPLALLLAGLIGIAYWEDMQRTAELADIDAAMLSDNLPLTAYLDHGFNAYLSHTH
- fold repression (ECF28_1040): 2.67
- fold repression (ECF28_1088): 3.31
- fold repression (ECF17_1458): 5.87
- fold repression (ECF33_375): 2.48
- fold repression (ECF01_3473): 6.84

B6: AS38_1322 (protein)
chain: MSDGNDARPDARDGHDPGSDARDGHDPGSHARDGHDPGAGPFDGHGPGSDAGDGDDAGPDARDGHGAPAGPAGREQRKHPHDTHDMHDTHDTHAGKGTVNHGPAAQGPDAPGADGPATDEAALRAMMQRAVREMEPSDGTLEHLRRAVPARRARKRQALVGAAAAALFLGTAVPALVHVSNATGAGADPSVAGNASQAQGGASQGKDPAGGQSGVAGTGDTPEDRDKADPKETPGGKEPGAATGAPPSGVPSASSPADVPACAPGSLGPAVASSAEPDSTGVVYGSFRVTNVSSDGCTVTGPGTVVTASLGAAEATRIGTARHAAGDAAAGLPDPSLETASLALAPGAAYEVQFAWVPSETCPTTGGTTGGGSGGPSPDPSPTADTTAAGGTSAGGGEAGPTTQLITEDGPAEGSVSVTYTPEGGSGSATATVSNACAGTVYWTGLLADSGSGA
- fold repression (ECF28_1040): 2.92
- fold repression (ECF28_1088): 3.19
- fold repression (ECF17_1458): 4.75
- fold repression (ECF33_375): 3.13
- fold repression (ECF01_3473): 4.19

B7: AS33_375 (protein)
chain: MMALSKKMLEQEPSEIELLLPWHAAGTLNARDARRVEDALARDPELAKQYAAIRGEYEETIHLNESLGAPSARAMQKLFGAIDAEPARETGSLPLSARIATFFASLSPRTLAWSASLGAVALVLQAGIIGAVLMKTQPTTFQTASLSTSAPITRELGAAVAPARALVRFTPEARVADITALLDSYQASIIGDAKGGMFRLQFDKAMSQDELASLLGRMQREKFVNLAVAAP
- fold repression (ECF28_1040): 3.33
- fold repression (ECF28_1088): 3.72
- fold repression (ECF17_1458): 11.3
- fold repression (ECF33_375): 152
- fold repression (ECF01_3473): 5.29

B8: AS33_423 (protein)
chain: MMAMSNTMPDPREPGDVEALLPWYAAGTLNARDARRVADALDRDPALARQYAVILEEYASTIELNESLGAPSSRAMQKLFAAIDAEPARAPGAGQGLGARFAGFFAGLSPKALAWSASVAGLALLLQAGLIGALLTWPHAAPVQTAAYQPQREVARAPASSPAPATVSPPAAAMADRAADAGKSTPPMVMAERSGGPVVRSLAPQSGPRVLVKFAPEARASEIAALLDQYNAVVVDSSRGGLFRLQFGTQSLSKQDQETLIGRLQKEPVVSVVLSAP
- fold repression (ECF28_1040): 2.67
- fold repression (ECF28_1088): 3.17
- fold repression (ECF17_1458): 8.41
- fold repression (ECF33_375): 114
- fold repression (ECF01_3473): 3.36
